Test results taken from patent US10766952B2, “Methods for reducing migraine frequency in a subject in need thereof” (Beth Israel Deaconess Medical Center, Inc., priority 2017, dated 2020).
Changes are numbered by the printed parent chain. Numbers in names are those of the source.

T1: human α-CGRP (Homo sapiens, UniProt P06881)
T1 construct: 1-37 (WT); purchased; host or cells: synthetic peptide
T1 sequence (P06881 83-119 limits assumed): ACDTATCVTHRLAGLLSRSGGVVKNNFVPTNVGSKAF

T2: rat α-CGRP (Rattus norvegicus, UniProt P01256)
T2 construct: rat α (1-37); host or cells: synthetic peptide
T2 sequence (P01256 83-119 limits assumed): T1 sequence (P06881 83-119 limits assumed) with A1S, D3N, N25D, K35E

B1: M68: G1 variant: L1 R28N,T30G; L2 L56I; H2 E54K,A57N,S58D,E64D; HC-FW3 L99T,A100V (antibody, V domains shown)
VH: EVQLVESGGGLVQPGGSLRLSCAASGFTFSNYWISWVRQAPGKGLEWVAEIRSKSDNDATHYADAVKGRFTISRDNAKNSLYLQMNSLRAEDTAVYYCTVYFDYGLAIQNYWGQGTLVTVSS
VL: EIVLTQSPATLSLSPGERATLSCKASKNVGTYVSWYQQKPGQAPRLLIYGASNRYIGIPARFSGSGSGTDFTLTISSLEPEDFAVYYCSQSYNYPYTFGQGTKLEIK
B2: M71: G1 variant: L1 R28N,T30G; L2 L56I; H2 E54K,A57Y; HC-FW3 L99T,A100V (antibody, V domains shown)
VH: B1 VH with N57Y, D58S, D64E
VL: B1 VL
B3: M79: G1 variant: L1 R28N,T30S; L2 G50A,L56T; H2 E54K,A57P; HC-FW3 L99T,A100V (antibody, V domains shown)
VH: B1 VH with N57P, D58S, D64E
VL: B1 VL with G30S, G50A, I56T
B4: M69: G1 variant: L1 R28N,T30G; L2 L56I; H2 E54K,A57N,S58E; HC-FW3 L99T,A100V (antibody, V domains shown)
VH: B1 VH with D58E, D64E
VL: B1 VL
B5: M81: G1 variant: L1 R28N,T30S; L2 L56S; H2 E54K,A57N,S58E; HC-FW3 L99T,A100V (antibody, V domains shown)
VH: B1 VH with D58E, D64E
VL: B1 VL with G30S, I56S
B6: M83: G1 variant: L1 R28N,T30V; L2 A51H,L56T; H2 E54K,A57N,S58M,H61F; HC-FW3 L991 (printed),A100V (antibody, V domains shown)
VH: B1 VH with D58M, H61F, D64E
VL: B1 VL with G30V, A51H, I56T
B7: M22: G1 variant: L1 R28W; HC-FW3 L99T (antibody, V domains shown)
VH: B1 VH with K54E, N57A, D58S, D64E, V100A
VL: B1 VL with N28W, G30T, I56L
B8: M75: G1 variant: L1 R28N,T30G; L2 L56S; H2 E54K,A57V; HC-FW3 L99T,A100V (antibody, V domains shown)
VH: B1 VH with N57V, D58S, D64E
VL: B1 VL with I56S
B9: M21: G1 variant: L1 R28W; HC-FW3 L99S (antibody, V domains shown)
VH: B1 VH with K54E, N57A, D58S, D64E, T99S, V100A
VL: B1 VL with N28W, G30T, I56L
B10: M72: G1 variant: L1 R28N,T30G; L2 L56S; H2 E54K; HC-FW3 L99T,A100V (antibody, V domains shown)
VH: B1 VH with N57A, D58S, D64E
VL: B1 VL with I56S
B11: M20: G1 variant: L1 R28W; HC-FW3 L99R,A100L (antibody, V domains shown)
VH: B1 VH with K54E, N57A, D58S, D64E, T99R, V100L
VL: B1 VL with N28W, G30T, I56L
B12: M70: G1 variant: L1 R28N,T30G; L2 L56I; H2 E54K,A57S; HC-FW3 L99T,A100V (antibody, V domains shown)
VH: B1 VH with N57S, D58S, D64E
VL: B1 VL
B13: M24: G1 variant: L1 R28L; HC-FW3 L99T,A100V (antibody, V domains shown)
VH: B1 VH with K54E, N57A, D58S, D64E
VL: B1 VL with N28L, G30T, I56L
B14: M78: G1 variant: L1 R28N,T30S; L2 G50A,L56T; H2 E54K,A57N,S58T; HC-FW3 L99T,A100V (antibody, V domains shown)
VH: B1 VH with D58T, D64E
VL: B1 VL with G30S, G50A, I56T
B15: M74: G1 variant: L1 R28N,T30G; L2 L56S; H2 E54K,A57S; HC-FW3 L99T,A100V (antibody, V domains shown)
VH: B1 VH with N57S, D58S, D64E
VL: B1 VL with I56S
B16: M76: G1 variant: L1 R28N,T30S; L2 G50A,L56T; H2 A57G; HC-FW3 L99T,A100V (antibody, V domains shown)
VH: B1 VH with K54E, N57G, D58S, D64E
VL: B1 VL with G30S, G50A, I56T
B17: M73: G1 variant: L1 R28N,T30G; L2 L56S; H2 E54K,A57N,S58Y,E64D; HC-FW3 L99T,A100V (antibody, V domains shown)
VH: B1 VH with D58Y
VL: B1 VL with I56S
B18: M25: G1 variant: L1 R28N; HC-FW3 L99T,A100V (antibody, V domains shown)
VH: B1 VH with K54E, N57A, D58S, D64E
VL: B1 VL with G30T, I56L
B19: M82: G1 variant: L1 R28N,T30V; L2 A51H,L56T; H2 A57N; HC-FW3 L991 (printed),A100V (antibody, V domains shown)
VH: B1 VH with K54E, D58S, D64E
VL: B1 VL with G30V, A51H, I56T
B20: M23: G1 variant: L1 R28G; HC-FW3 L99T,A100V (antibody, V domains shown)
VH: B1 VH with K54E, N57A, D58S, D64E
VL: B1 VL with N28G, G30T, I56L
B21: M80: G1 variant: L1 R28N,T30S; L2 L56I; H2 E54K,A57N,S58V; HC-FW3 L99T,A100V (antibody, V domains shown)
VH: B1 VH with D58V, D64E
VL: B1 VL with G30S
B22: M84: G1 variant: L1 R28N,T30V; L2 A51H,L56T; H2 E54N,A57N; HC-FW3 L991 (printed),A100V (antibody, V domains shown)
VH: B1 VH with K54N, D58S, D64E
VL: B1 VL with G30V, A51H, I56T
B23: M77: G1 variant: L1 R28N,T30S; L2 G50A,L56T; H2 E54K,A57D; HC-FW3 L99T,A100V (antibody, V domains shown)
VH: B1 VH with N57D, D58S, D64E
VL: B1 VL with G30S, G50A, I56T

What follows are molecules tested against T1, human α-CGRP (assay: Biacore affinity of antibody G1 Fab and variants to human α-CGRP). Conditions: 37° C., Fab, screening mode unless underlined.
Type: binding
Procedure: (§1) Biacore assay for affinity determination. […] All Biacore assays were conducted in HBS-EP running buffer (10 mM HEPES pH 7.4, 150 mM NaCl, 3 mM EDTA, 0.005% v/v polysorbate P20). CGRP surfaces were prepared by diluting the N-biotinylated CGRP to a concentration of less than 0.001 mg/mL into HBS-EP buffer and injecting it across the SA sensor chip using variable contact times. Low capacity surfaces, corresponding to capture levels <50 response units (RU) were used for high-resolution kinetic studies, whereas high capacity surfaces (about 800 RU of captured CGRP) were used for concentration studies, screening, and solution affinity determinations. […] Samples were typically injected for lminute at 100 μL/min and dissociation times of at least 10 minutes were allowed. After each binding cycle, surfaces were regenerated with 25 mM NaOH in 25% v/v ethanol, which was tolerated over hundreds of cycles. An entire titration series (typically generated in duplicate) was fit globally to a 1:1 Langmuir binding model using the BlAevaluation program. This returned a unique pair of association and dissociation kinetic rate constants (respectively, kon and koff) for each binding interaction, whose ratio gave the equilibrium dissociation constant (KD=koff/[…]).
(§2) High-resolution analysis of binding interactions with extremely slow offrates. […] The protocol described above was used with the following modifications. The association rate constant (kon) was determined by injecting a 2-fold titration series (in duplicate) spanning 550 nM-1 nM for 30 seconds at 100 μL/min and allowing only a 30 second dissociation phase. The dissociation rate constant (koff) was determined by injecting three concentrations (high, medium, and low) of the same titration series in duplicate for 30 seconds and allowing a 2-hour dissociation phase. The affinity (KD) of each interaction was obtained by combining the kon and koff values obtained in both types of experiments, as shown in Table 4.
(§3) The binding affinities of Fab fragments were determined by Biacore by flowing them across CGRPs on a SA chip.
B1 showed a α-human koff of 0.000428 s⁻¹. For B2, the α-human koff was 0.00128 s⁻¹. B3 was tested, and the α-human koff was 0.00129 s⁻¹. For B4, the α-human koff was 0.000733 s⁻¹. B5 was tested, and the α-human koff was 0.00049 s⁻¹. B6 was tested, and the α-human koff was 0.000933 s⁻¹. With B7 the α-human koff was 0.000116 s⁻¹. In the case of B8, the α-human koff is reported as 0.00116 s⁻¹. For B9, the α-human koff was 0.000142 s⁻¹. Molecule B10 has a α-human koff of 0.0004 s⁻¹. With B11 the α-human koff was 0.000136 s⁻¹. B12 showed a α-human koff of 0.000559 s⁻¹. In the case of B13, the α-human koff is reported as 0.000148 s⁻¹. With B14 the α-human koff was 0.00131 s⁻¹. Work on B15 yielded a α-human koff of 0.000597 s⁻¹. For B16, the α-human koff was 0.000364 s⁻¹. Molecule B17 has a α-human koff of 0.000255 s⁻¹. With B18 the α-human koff was 0.00014 s⁻¹. B19 gave a α-human koff of 0.000877 s⁻¹. B20 was tested, and the α-human koff was 0.00013 s⁻¹. With B21 the α-human koff was 0.00209 s⁻¹. B22 gave a α-human koff of 0.00108 s⁻¹. Molecule B23 has a α-human koff of 0.000477 s⁻¹.

These molecules were tested against T2, rat α-CGRP (assay: Biacore affinity of antibody G1 Fab and variants to rat α-CGRP). Conditions: 37° C., Fab, screening mode unless underlined.
Type: binding
Procedure: as §1, §2, §3
In the case of B1, the α-rat koff is reported as 0.00676 s⁻¹. For B2, the α-rat koff was 0.00212 s⁻¹. B3 showed a α-rat koff of 0.19 s⁻¹. Work on B4 yielded a α-rat koff of 0.00181 s⁻¹. For B5, the α-rat koff was 0.00429 s⁻¹. In the case of B6, the α-rat koff is reported as “No binding”. In the case of B7, the α-rat koff is reported as 0.0011 s⁻¹. For B8, the α-rat koff was 0.0187 s⁻¹. B9 showed a α-rat koff of 0.000695 s⁻¹. Molecule B10 has a α-rat koff of 0.00395 s⁻¹. B11 gave a α-rat koff of 0.00144 s⁻¹. In the case of B12, the α-rat koff is reported as 0.00607 s⁻¹. B13 was tested, and the α-rat koff was 0.00104 s⁻¹. In the case of B14, the α-rat koff is reported as 0.167 s⁻¹. With B15 the α-rat koff was 0.00603 s⁻¹. Work on B16 yielded a α-rat koff of 0.00116 s⁻¹. With B17 the α-rat koff was 0.003 s⁻¹. Molecule B18 has a α-rat koff of 0.0014 s⁻¹. B19 was tested, and the α-rat koff was 0.00699 s⁻¹. B20 was tested, and the α-rat koff was 0.000799 s⁻¹. For B21, the α-rat koff was 0.0993 s⁻¹. Molecule B22 has a α-rat koff of 0.0176 s⁻¹. With B23 the α-rat koff was 0.0143 s⁻¹.
